In patent publication US20140323393A1 (CREATIVE BIO PEPTIDES, published 2014):
Where no end group is shown, it is not given here. [ ]: non-standard residue; d: D form.

Target: Toll-like receptor 4 (TLR4) on monocyte-derived iDC
Assay: cell-based or functional assay

Binder: [dT][dT][dN][dY][dT] [All-D-TTNYT (RAP-103)]
- IC50 for inhibition of LPS (100 ng/mL) induced TNF-α secretion in monocyte-derived iDC (ELISA of supernatants, FIG. 5): ~0.1 pM
